# From publication PMC2908316 (Journal of biomolecular screening, 2009)
# B1: Rat Gαo, N-terminal 6X-HIS tagged, labeled with AlexaFluor 532 (natural protein, UniProt P59215 1-354, looked up)
# chain: MGCTLSAEERAALERSKAIEKNLKEDGISAAKDVKLLLLGAGESGKSTIVKQMKIIHEDGFSGEDVKQYKPVVYSNTIQSLAAIVRAMDTLGVEYGDKERKADSKMVCDVVSRMEDTEPFSAELLSAMMRLWGDSGIQECFNRSREYQLNDSAKYYLDSLDRIGAADYQPTEQDILRTRVKTTGIVETHFTFKNLHFRLFDVGGQRSERKKWIHCFEDVTAIIFCVALSGYDQVLHEDETTNRMHESLMLFDSICNNKFFIDTSIILFLNKKDLFGEKIKKSPLTICFPEYPGSNTYEDAAAYIQTQFESKNRSPNKEIYCHMTCATDTNNIQVVFDAVTDIIIANNLRGCGLY
# modifications: AlexaFluor 532 carboxylic acid succinimidyl ester label, 3:1 fluorophore:protein ratio
# Experiments:
# [1] = target: T1, full-length RGS8, GST-fusion protein, biotinylated (UniProt P49804 1-180, biotin on amines (Biotin-NHS, 3:1 biotin:RGS)); experiment: flow cytometry protein interaction assay
# T1 sequence (looked up): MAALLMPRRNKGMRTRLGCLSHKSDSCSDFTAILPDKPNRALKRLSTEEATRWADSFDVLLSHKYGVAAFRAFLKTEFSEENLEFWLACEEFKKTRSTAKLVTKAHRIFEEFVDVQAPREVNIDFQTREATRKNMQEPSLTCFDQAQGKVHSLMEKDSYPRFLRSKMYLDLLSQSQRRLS
# [2] = target: T2, RGS7 RH domain, GST-fusion protein, biotinylated (UniProt P49802 333-448, biotin on amines (Biotin-NHS, 3:1 biotin:RGS)); experiment: flow cytometry protein interaction assay
# T2 sequence (looked up): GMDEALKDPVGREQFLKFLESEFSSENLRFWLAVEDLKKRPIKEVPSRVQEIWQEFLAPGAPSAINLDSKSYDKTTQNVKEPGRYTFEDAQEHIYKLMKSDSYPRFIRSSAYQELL
binder,measurement,setting,value
B1,"bead-associated fluorescence, positive control mean (with AlF4-)",[1],2060
same,"bead-associated fluorescence, positive control mean (with AlF4-)",[2],948
